# Square brackets hold non-standard residues; d marks the D form. Ends that are not written are not given here. Ahx = NCCCCCC(=O)O
# T1: neuropeptide Y5 receptor (Homo sapiens (Human)), Q15761
# T1 chain: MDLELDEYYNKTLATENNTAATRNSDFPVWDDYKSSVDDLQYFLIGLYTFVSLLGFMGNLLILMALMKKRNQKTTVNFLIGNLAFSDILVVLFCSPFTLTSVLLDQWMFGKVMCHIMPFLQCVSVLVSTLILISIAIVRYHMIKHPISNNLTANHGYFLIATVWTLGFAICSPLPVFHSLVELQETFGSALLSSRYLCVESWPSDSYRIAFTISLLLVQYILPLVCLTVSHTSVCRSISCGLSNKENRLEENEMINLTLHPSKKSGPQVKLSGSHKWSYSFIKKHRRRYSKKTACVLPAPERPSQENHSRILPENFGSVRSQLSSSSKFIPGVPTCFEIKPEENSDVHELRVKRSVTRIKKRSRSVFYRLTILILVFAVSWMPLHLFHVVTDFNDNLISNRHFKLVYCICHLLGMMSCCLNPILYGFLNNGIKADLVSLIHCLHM
# T2: neuropeptide Y2 receptor, P49146
# T2 chain: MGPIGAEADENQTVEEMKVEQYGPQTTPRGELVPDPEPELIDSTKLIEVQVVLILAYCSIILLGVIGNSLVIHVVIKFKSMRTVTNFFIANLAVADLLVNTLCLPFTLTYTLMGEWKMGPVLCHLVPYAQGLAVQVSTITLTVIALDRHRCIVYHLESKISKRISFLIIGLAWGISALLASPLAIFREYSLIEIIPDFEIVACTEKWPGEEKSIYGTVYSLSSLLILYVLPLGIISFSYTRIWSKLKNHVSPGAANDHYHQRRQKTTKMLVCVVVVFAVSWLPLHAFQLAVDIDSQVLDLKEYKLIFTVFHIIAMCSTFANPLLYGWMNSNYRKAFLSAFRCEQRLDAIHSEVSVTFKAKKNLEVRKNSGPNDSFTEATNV
# T3: neuropeptide Y1 receptor, P25929
# T3 chain: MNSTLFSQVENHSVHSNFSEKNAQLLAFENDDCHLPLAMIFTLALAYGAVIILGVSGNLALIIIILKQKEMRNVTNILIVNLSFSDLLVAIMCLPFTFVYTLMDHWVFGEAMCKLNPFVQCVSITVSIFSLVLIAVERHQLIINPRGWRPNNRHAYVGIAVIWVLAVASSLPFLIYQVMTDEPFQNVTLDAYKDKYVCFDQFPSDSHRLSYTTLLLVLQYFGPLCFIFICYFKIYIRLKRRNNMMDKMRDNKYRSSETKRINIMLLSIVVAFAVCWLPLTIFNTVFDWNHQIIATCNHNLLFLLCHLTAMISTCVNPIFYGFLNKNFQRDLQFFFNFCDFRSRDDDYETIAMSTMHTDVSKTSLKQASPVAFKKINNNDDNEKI
# Target: T1, neuropeptide Y5 receptor (Homo sapiens …)
# Assay: competition vs [125I]-hPYY, Y5-transfected CHO-K1 membranes
row,Y5RBA,Binder
1,17 nM,YYASLRHYLNLVTRQRY (modifications not checked) [SEQ ID NO: 178]
2,5.8 nM,YPIK[Ahx]ELNRYYASLRHYLNLVTRQRY (ends and bridges not checked) [PYY(1-4)Aca(16-36)]
3,11 nM,EELNRYYASLRHYLNLVTRQRY (modifications not checked) [SEQ ID NO: 177]

# Target: T2, neuropeptide Y2 receptor, P49146
# Assay: radioligand competition, [125I]-hPYY, SK-N-BE membranes
row,Binder,Y2RBA
1,APLEPVYPGDNATPEQMNRYYASLRHFLNLVTRQRY (modifications not checked) [SEQ ID NO 288],0.35 nM
2,APLEPVYPGDNATPEQMNRYYASLRAYLNLVTRQRY (modifications not checked) [SEQ ID NO 308],0.56 nM
3,APLEPVYPGDNATPEELNRYYASLRHYLNLVTRQRY (modifications not checked) [SEQ ID NO 296],0.76 nM
4,APLEPVYPGDNASPEELNRYYASLRHYLNLVTRQRY (modifications not checked) [SEQ ID NO 297],0.32 nM
5,APLEPVYPGDNATPEQMNKYYASLRHYLNLVTRQRY (modifications not checked) [SEQ ID NO 306],0.16 nM
6,APLEPVYPGDNATPEQMNKYYASLRHYLNLVTRQRY (modifications not checked) [SEQ ID NO 293],0.18 nM
7,APLEPVYPGDNATPEQLNRYYASLRHYLNLVTRQRY (modifications not checked) [SEQ ID NO 295],0.18 nM
8,YPIKPEAPGEDASPEELNQYAASLRRYINMLTRQRY (modifications not checked) [SEQ ID NO 317],0.097 nM

# The remaining lines, values ahead:
row,Y2RBA,Binder
1,0.54 nM,YPIRPEAPGEDASPEELAQYAADLRRYINMLTRQRY (modifications not checked) [SEQ ID NO 332]
2,0.15 nM,YPIKPEAPGEDASPQELAQYAADLRRYINMLTRQRY (modifications not checked) [SEQ ID NO 341]
3,3.7 nM,YPIKPEAPGEDASPEELAQYAADLKRYINMLTRQRY (modifications not checked) [SEQ ID NO 321]

# Target: neuropeptide Y4 receptor
# Sequence (P50391 whole entry): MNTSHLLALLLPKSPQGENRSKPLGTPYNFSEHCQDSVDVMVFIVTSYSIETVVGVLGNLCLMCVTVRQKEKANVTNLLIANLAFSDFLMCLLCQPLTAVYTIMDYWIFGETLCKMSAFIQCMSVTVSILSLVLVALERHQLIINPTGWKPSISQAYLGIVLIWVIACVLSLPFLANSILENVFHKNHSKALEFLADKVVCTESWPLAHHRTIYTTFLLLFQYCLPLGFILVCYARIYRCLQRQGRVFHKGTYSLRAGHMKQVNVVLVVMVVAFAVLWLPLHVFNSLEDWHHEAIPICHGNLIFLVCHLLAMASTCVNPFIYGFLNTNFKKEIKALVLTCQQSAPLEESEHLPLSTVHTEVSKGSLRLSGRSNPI
# Assay: competition vs [125I]-hPP, Y4-transfected CHO-K1 membranes
row,Y4 RBA,Binder
1,38 nM,YYASLRHYLNLVTRQRY (modifications not checked) [SEQ ID NO: 178]
2,65 nM,YPIK[Ahx]ELNRYYASLRHYLNLVTRQRY (ends and bridges not checked) [PYY(1-4)Aca(16-36)]
3,46 nM,EELNRYYASLRHYLNLVTRQRY (modifications not checked) [SEQ ID NO: 177]

# Target: neuropeptide Y4 receptor
# Assay: radioligand competition, [125I]-hPP, Y4/CHO-K1 membranes
row,Binder,Y4 RBA
1,APLEPVYPGDNATPEQMNRYYASLRHFLNLVTRQRY (modifications not checked) [SEQ ID NO 288],11 nM
2,APLEPVYPGDNATPEQMNRYYASLRAYLNLVTRQRY (modifications not checked) [SEQ ID NO 308],2.1 nM
3,APLEPVYPGDNATPEELNRYYASLRHYLNLVTRQRY (modifications not checked) [SEQ ID NO 296],2.9 nM
4,APLEPVYPGDNASPEELNRYYASLRHYLNLVTRQRY (modifications not checked) [SEQ ID NO 297],4 nM
5,APLEPVYPGDNATPEQMNKYYASLRHYLNLVTRQRY (modifications not checked) [SEQ ID NO 306],1.2 nM
6,APLEPVYPGDNATPEQMNKYYASLRHYLNLVTRQRY (modifications not checked) [SEQ ID NO 293],0.87 nM
7,APLEPVYPGDNATPEQLNRYYASLRHYLNLVTRQRY (modifications not checked) [SEQ ID NO 295],1 nM
8,YPIKPEAPGEDASPEELNQYAASLRRYINMLTRQRY (modifications not checked) [SEQ ID NO 317],16 nM

# The remaining lines, values ahead:
row,Y4 RBA,Binder
1,38 nM,YPIRPEAPGEDASPEELAQYAADLRRYINMLTRQRY (modifications not checked) [SEQ ID NO 332]
2,11 nM,YPIKPEAPGEDASPQELAQYAADLRRYINMLTRQRY (modifications not checked) [SEQ ID NO 341]
3,57 nM,YPIKPEAPGEDASPEELAQYAADLKRYINMLTRQRY (modifications not checked) [SEQ ID NO 321]

# Target: T1, neuropeptide Y5 receptor (Homo sapiens …)
# Assay: radioligand competition, [125I]-hPYY, Y5/CHO-K1 membranes
row,Binder,Y5RBA
1,APLEPVYPGDNATPEQMNRYYASLRHFLNLVTRQRY (modifications not checked) [SEQ ID NO 288],1.1 nM
2,APLEPVYPGDNATPEQMNRYYASLRAYLNLVTRQRY (modifications not checked) [SEQ ID NO 308],1.4 nM
3,APLEPVYPGDNATPEELNRYYASLRHYLNLVTRQRY (modifications not checked) [SEQ ID NO 296],2.1 nM
4,APLEPVYPGDNASPEELNRYYASLRHYLNLVTRQRY (modifications not checked) [SEQ ID NO 297],1.8 nM
5,APLEPVYPGDNATPEQMNKYYASLRHYLNLVTRQRY (modifications not checked) [SEQ ID NO 306],0.27 nM
6,APLEPVYPGDNATPEQMNKYYASLRHYLNLVTRQRY (modifications not checked) [SEQ ID NO 293],0.48 nM
7,APLEPVYPGDNATPEQLNRYYASLRHYLNLVTRQRY (modifications not checked) [SEQ ID NO 295],0.63 nM
8,YPIKPEAPGEDASPEELNQYAASLRRYINMLTRQRY (modifications not checked) [SEQ ID NO 317],0.69 nM

# Second part, the binder after the results:
row,Y5RBA,Binder
1,1 nM,YPIRPEAPGEDASPEELAQYAADLRRYINMLTRQRY (modifications not checked) [SEQ ID NO 332]
2,0.3 nM,YPIKPEAPGEDASPQELAQYAADLRRYINMLTRQRY (modifications not checked) [SEQ ID NO 341]
3,5.6 nM,YPIKPEAPGEDASPEELAQYAADLKRYINMLTRQRY (modifications not checked) [SEQ ID NO 321]

# Target: T3, neuropeptide Y1 receptor, P25929
# Assay: competition vs [125I]-hPYY, SK-N-MC membranes
row,Y1RBA,Binder
1,7.7 nM,YYASLRHYLNLVTRQRY (modifications not checked) [SEQ ID NO: 178]
2,4.4 nM,YPIK[Ahx]ELNRYYASLRHYLNLVTRQRY (ends and bridges not checked) [PYY(1-4)Aca(16-36)]
3,5.8 nM,EELNRYYASLRHYLNLVTRQRY (modifications not checked) [SEQ ID NO: 177]

# Target: T3, neuropeptide Y1 receptor, P25929
# Assay: radioligand competition, [125I]-hPYY, SK-N-MC membranes
row,Binder,Y1RBA
1,APLEPVYPGDNATPEQMNRYYASLRHFLNLVTRQRY (modifications not checked) [SEQ ID NO 288],1.8 nM
2,APLEPVYPGDNATPEQMNRYYASLRAYLNLVTRQRY (modifications not checked) [SEQ ID NO 308],1 nM
3,APLEPVYPGDNATPEELNRYYASLRHYLNLVTRQRY (modifications not checked) [SEQ ID NO 296],2.7 nM
4,APLEPVYPGDNASPEELNRYYASLRHYLNLVTRQRY (modifications not checked) [SEQ ID NO 297],3.6 nM
5,APLEPVYPGDNATPEQMNKYYASLRHYLNLVTRQRY (modifications not checked) [SEQ ID NO 306],0.6 nM
6,APLEPVYPGDNATPEQMNKYYASLRHYLNLVTRQRY (modifications not checked) [SEQ ID NO 293],0.82 nM
7,APLEPVYPGDNATPEQLNRYYASLRHYLNLVTRQRY (modifications not checked) [SEQ ID NO 295],1 nM
8,YPIKPEAPGEDASPEELNQYAASLRRYINMLTRQRY (modifications not checked) [SEQ ID NO 317],4.3 nM

# Second part, the binder after the results:
row,Y1RBA,Binder
1,13 nM,YPIRPEAPGEDASPEELAQYAADLRRYINMLTRQRY (modifications not checked) [SEQ ID NO 332]
2,1.8 nM,YPIKPEAPGEDASPQELAQYAADLRRYINMLTRQRY (modifications not checked) [SEQ ID NO 341]
3,12 nM,YPIKPEAPGEDASPEELAQYAADLKRYINMLTRQRY (modifications not checked) [SEQ ID NO 321]

# Target: T2, neuropeptide Y2 receptor, P49146
# Assay: competition vs [125I]-hPYY, SK-N-BE membranes
row,Y2RBA,Binder
1,0.29 nM,YYASLRHYLNLVTRQRY (modifications not checked) [SEQ ID NO: 178]
2,0.21 nM,YPIK[Ahx]ELNRYYASLRHYLNLVTRQRY (ends and bridges not checked) [PYY(1-4)Aca(16-36)]
3,0.34 nM,EELNRYYASLRHYLNLVTRQRY (modifications not checked) [SEQ ID NO: 177]

# — US20100099619A1
